Results from publication PMC7199859 (The Journal of Cell Biology, 2020).

Key:
[1] = target: GAS2L1 S352A (Bio-GFP-tagged) (human) (UniProt Q99501); assay: pull-down
[2] = target: GAS2L1 S352D (Bio-GFP-tagged) (human) (UniProt Q99501); assay: pull-down
[3] = target: taxol-stabilized microtubules from porcine brain α/β-tubulin (porcine) (UniProt P02550); assay: co-sedimentation
[4] = target: T1, His6-CH (recombinant GAS2L1 CH domain, His6 tagged) (human, UniProt Q99501 1-196); assay: pull-down
T1 sequence (looked up): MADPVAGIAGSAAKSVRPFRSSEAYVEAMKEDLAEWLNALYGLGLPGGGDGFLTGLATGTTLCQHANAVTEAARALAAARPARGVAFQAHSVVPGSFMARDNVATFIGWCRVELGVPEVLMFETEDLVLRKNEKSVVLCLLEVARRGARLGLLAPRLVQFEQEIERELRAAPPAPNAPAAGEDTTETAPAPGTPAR

Molecule “actin (endogenous, HEK293T; detected with anti-β-actin) (from UniProt P60709 1-375) (natural protein)” has an actin-binding activity relative to WT GAS2L1 [1] of 62 % lower and an actin-binding activity relative to WT GAS2L1 [2] of 46 % higher.

B1: His6-FLAG-CH-GAR (recombinant GAS2L1 1-300) (domain or fragment)
chain: MADPVAGIAGSAAKSVRPFRSSEAYVEAMKEDLAEWLNALYGLGLPGGGDGFLTGLATGTTLCQHANAVTEAARALAAARPARGVAFQAHSVVPGSFMARDNVATFIGWCRVELGVPEVLMFETEDLVLRKNEKSVVLCLLEVARRGARLGLLAPRLVQFEQEIERELRAAPPAPNAPAAGEDTTETAPAPGTPARGPRMTPSDLRNLDELVREILGRCTCPDQFPMIKVSEGKYRVGDSSLLIFVRVLRSHVMVRVGGGWDTLEHYLDKHDPCRCSSTAHRPPQPRVCTFSPQRVSPTT
In the case of B1, the microtubule-binding activity relative to the GAR protein [3] is reported as 47 % lower.

B2: His6-FLAG-GAR (recombinant GAS2L1 GAR protein, 197-300) (domain or fragment, human, UniProt Q99501 197-300, looked up)
chain: GPRMTPSDLRNLDELVREILGRCTCPDQFPMIKVSEGKYRVGDSSLLIFVRVLRSHVMVRVGGGWDTLEHYLDKHDPCRCSSTAHRPPQPRVCTFSPQRVSPTT
B2: binds [4].
